From paper PMC4380549

Target: FGFR3 TM-JM-YFP/mCherry (human)
Test: FRET or BRET

percent dimer: 100%
Substance: FGFR3 TM-JM-YFP/mCherry (domain or fragment)
